In patent US11957716B2 (Immatics Biotechnologies GmbH, priority 2021, dated 2024):

Key:
HLA-B*07:0 = HLA-B*07:0 (Homo sapiens, UniProt P01889); experiment: MHC binding assay, UV-ligand exchange ELISA; settings: peptide exchange yield, binding to HLA-B*07:0
From the text: (§1) Candidate peptides for T cell based therapies according to the present invention were further tested for their MHC binding capacity (affinity). The individual peptide-MHC complexes were produced by UV-ligand exchange, where a UV-sensitive peptide is cleaved upon UV-irradiation and exchanged with the peptide of interest as analyzed. Only peptide candidates that can effectively bind and stabilize the peptide-receptive MHC molecules prevent dissociation of the MHC complexes. To determine the yield of the exchange reaction, an ELISA was performed based on the detection of the light chain (β2m) of stabilized MHC complexes. The assay was performed as generally described in Rodenko et al. (Rodenko et al., 2006).
(§2) 96 well MAXISorp plates (NUNC) were coated over night with 2 μg/ml streptavidin in PBS at room temperature, washed 4× and blocked for 1 h at 37° C. in 2% BSA containing blocking buffer. Refolded HLA-A*02:01/MLA-001 monomers served as standards, covering the range of 15-500 ng/ml. Peptide-MHC monomers of the UV-exchange reaction were diluted 100-fold in blocking buffer. Samples were incubated for 1 h at 37° C., washed four times, incubated with 2 μg/ml HRP conjugated anti-82m for 1 h at 37° C., washed again and detected with TMB solution that is stopped with […]. Absorption was measured at 450 nm. Candidate peptides that show a high exchange yield (preferably higher than 50%, most preferred higher than 75%) are generally preferred for a generation and production of antibodies or fragments thereof, and/or T cell receptors or fragments thereof, as they show sufficient avidity to the MHC molecules and prevent dissociation of the MHC complexes.

[1] = system: HLA-A*01:01, HLA-A*02:01, HLA-A*03:01, HLA-A*24:02, HLA-B*07:02, HLA-B*08:01 and HLA-B*44:02; experiment: HLA alleles the peptides bind to (Table 7); type: binding, human; settings: allotype from the group HLA-A*01:01, HLA-A*02:01, HLA-A*03:01, HLA-A*24:02, HLA-B*07:02, HLA-B*08:01, HLA-B*44:02
From the text: However, due to similarities in binding pattern such as the relevant anchoring positions some peptides bind to more than one allele, such an overlap is most likely, but not limited to, HLA-A*01 binding peptides also binding to HLA-B*15, HLA-A*03 binding peptides also binding to HLA-A*11, HLA-B*07 binding peptides also binding to HLA-B*35 and HLA-B*51.

HLA-A*03:01 = HLA-A*03:01 (Homo sapiens, UniProt P04439); experiment: MHC binding assay, UV-ligand exchange ELISA; settings: peptide exchange yield, binding to HLA-A*03:01
From the text: as §1, §2

Substance | Peptide exchange (HLA-B*07:0) | Binders (HLA alleles the peptides according to the invention bind to) [1] | Peptide exchange (HLA-A*03:01)
15 (SPVETRSLL; listed as Homo sapiens) [compound 15] | +++ (≥50% = +++) |  | 
41 (APQPRSLAA; listed as Homo sapiens) [compound 41] | ++++ (≥75% = ++++) |  | 
52 (SPLPHLGPL; listed as Homo sapiens) [compound 52] | +++ (≥50% = +++) |  | 
55 (SPVSASWIL; listed as Homo sapiens) [compound 55] | ++++ (≥75% = ++++) |  | 
59 (AVDLGVLEL; listed as Homo sapiens) [compound 59] | +++ (≥50% = +++) |  | 
63 (MPANFETIGF; listed as Homo sapiens) [compound 63] | ++++ (≥75% = ++++) |  | 
64 (LPTRSLPAF; listed as Homo sapiens) [compound 64] | +++ (≥50% = +++) |  | 
66 (RPLILIRI; listed as Homo sapiens) [compound 66] | ++ (≥20% = ++) |  | 
77 (YPDVPIGQL; listed as Homo sapiens) [compound 77] | +++ (≥50% = +++) |  | 
78 (TPSHSTPSF; listed as Homo sapiens) [compound 78] | +++ (≥50% = +++) |  | 
85 (LPHPVNSGL; listed as Homo sapiens) [compound 85] | +++ (≥50% = +++) |  | 
89 (SPSSPLLLLA; listed as Homo sapiens) [compound 89] | +++ (≥50% = +++) |  | 
93 (SPIGLSLIL; listed as Homo sapiens) [compound 93] | ++++ (≥75% = ++++) |  | 
96 (HPRESLNMLVAF; listed as Homo sapiens) [compound 96] | ++++ (≥75% = ++++) |  | 
100 (SPAPSLARFLSL; listed as Homo sapiens) [compound 100] | ++++ (≥75% = ++++) |  | 
103 (RPWLSSPTGL; listed as Homo sapiens) [compound 103] | ++++ (≥75% = ++++) |  | 
109 (MPKLFLTAC; listed as Homo sapiens) [compound 109] | ++++ (≥75% = ++++) |  | 
110 (APSLARFLSL; listed as Homo sapiens) [compound 110] | ++++ (≥75% = ++++) |  | 
111 (RPIWDVRSA; listed as Homo sapiens) [compound 111] | ++++ (≥75% = ++++) |  | 
114 (VPHHLLSSV; listed as Homo sapiens) [compound 114] | ++++ (≥75% = ++++) |  | 

Substance | Peptide exchange (HLA-B*07:0) | Binders (HLA alleles the peptides according to the invention bind to) [1] | Peptide exchange (HLA-A*03:01)
120 (APGPRSQGL; listed as Homo sapiens) [compound 120] | +++ (≥50% = +++) |  | 
124 (SPSSNSREL; listed as Homo sapiens) [compound 124] | +++ (≥50% = +++) |  | 
126 (NPELLVILL; listed as Homo sapiens) [compound 126] | +++ (≥50% = +++) |  | 
129 (IPISIFKMA; listed as Homo sapiens) [compound 129] | +++ (≥50% = +++) |  | 
134 (MPCTTILRI; listed as Homo sapiens) [compound 134] | ++++ (≥75% = ++++) |  | 
137 (MPIQVLKGL; listed as Homo sapiens) [compound 137] | ++++ (≥75% = ++++) |  | 
140 (QPAPQPLL; listed as Homo sapiens) [compound 140] | +++ (≥50% = +++) |  | 
150 (IVFLLQQGEK; listed as Homo sapiens) [compound 150] |  | HLA-A*03:01 | +++ (≥50% = +++)
151 (AVFVNWEQTKK; listed as Homo sapiens) [compound 151] |  | HLA-A*03:01 | ++++ (≥75% = ++++)
152 (KIMEILNLK; listed as Homo sapiens) [compound 152] |  | HLA-A*03:01 | ++++ (≥75% = ++++)
154 (TVTSAIVNR; listed as Homo sapiens) [compound 154] |  | HLA-A*03:01 | +++ (≥50% = +++)
155 (MPWVLMSPF; listed as Homo sapiens) [compound 155] | ++++ (≥75% = ++++) |  | 
156 (SLRVPSPAL; listed as Homo sapiens) [compound 156] | +++ (≥50% = +++) |  | 
157 (APLRAGWAA; listed as Homo sapiens) [compound 157] | ++++ (≥75% = ++++) |  | 
159 (ASAIPAGAK; listed as Homo sapiens) [compound 159] |  | HLA-A*03:01 | +++ (≥50% = +++)
161 (ILAASFQAR; listed as Homo sapiens) [compound 161] |  | HLA-A*03:01 | +++ (≥50% = +++)
162 (LPVHGPLPLLL; listed as Homo sapiens) [compound 162] | +++ (≥50% = +++) |  | 
166 (VIFLHQPPK; listed as Homo sapiens) [compound 166] |  | HLA-A*03:01 | ++++ (≥75% = ++++)
169 (RPQGVGPAA; listed as Homo sapiens) [compound 169] | ++++ (≥75% = ++++) |  | 
174 (LSGPVTFLR; listed as Homo sapiens) [compound 174] |  | HLA-A*03:01 | +++ (≥50% = +++)

Substance | Peptide exchange (HLA-B*07:0) | Binders (HLA alleles the peptides according to the invention bind to) [1] | Peptide exchange (HLA-A*03:01)
175 (MPFLKVPPL; listed as Homo sapiens) [compound 175] | ++++ (≥75% = ++++) |  | 
178 (SLFGGLFTR; listed as Homo sapiens) [compound 178] |  | HLA-A*03:01 | ++++ (≥75% = ++++)
179 (MIFSGVFLR; listed as Homo sapiens) [compound 179] |  | HLA-A*03:01 | ++++ (≥75% = ++++)
182 (RPSLPCRSF; listed as Homo sapiens) [compound 182] | +++ (≥50% = +++) |  | 
184 (VVHGGMSIF; listed as Homo sapiens) [compound 184] | ++ (≥20% = ++) |  | 
185 (MPAFLSRASAL; listed as Homo sapiens) [compound 185] | ++++ (≥75% = ++++) |  | 
187 (RLCPAAPTGK; listed as Homo sapiens) [compound 187] |  | HLA-A*03:01 | ++++ (≥75% = ++++)
190 (STQSSLLYLK; listed as Homo sapiens) [compound 190] |  | HLA-A*03:01 | +++ (≥50% = +++)
191 (APLLPGPAA; listed as Homo sapiens) [compound 191] | ++++ (≥75% = ++++) |  | 
192 (IPLHFSTAF; listed as Homo sapiens) [compound 192] | ++++ (≥75% = ++++) |  | 
193 (ILQLITVNR; listed as Homo sapiens) [compound 193] |  | HLA-A*03:01 | +++ (≥50% = +++)
198 (MTYQQPFSNR; listed as Homo sapiens) [compound 198] |  | HLA-A*03:01 | ++++ (≥75% = ++++)
202 (KLLLLSSVK; listed as Homo sapiens) [compound 202] |  | HLA-A*03:01 | +++ (≥50% = +++)
203 (AILVPQPPK; listed as Homo sapiens) [compound 203] |  | HLA-A*03:01 | +++ (≥50% = +++)
204 (VVRASSGLK; listed as Homo sapiens) [compound 204] |  | HLA-A*03:01 | +++ (≥50% = +++)
205 (SLIPIVPFKS; listed as Homo sapiens) [compound 205] |  | HLA-A*03:01 | ++ (≥20% = ++)
209 (AILLPQLPK; listed as Homo sapiens) [compound 209] |  | HLA-A*03:01 | ++++ (≥75% = ++++)
213 (TLLSFKTVLFK; listed as Homo sapiens) [compound 213] |  | HLA-A*03:01 | ++++ (≥75% = ++++)
